Assay results published in US20090028872A1 (Bristol-Myers Squibb, published 2009).

T1: human CD70 expressed on the cell surface (human, UniProt P32970 1-193)
T1 sequence (looked up): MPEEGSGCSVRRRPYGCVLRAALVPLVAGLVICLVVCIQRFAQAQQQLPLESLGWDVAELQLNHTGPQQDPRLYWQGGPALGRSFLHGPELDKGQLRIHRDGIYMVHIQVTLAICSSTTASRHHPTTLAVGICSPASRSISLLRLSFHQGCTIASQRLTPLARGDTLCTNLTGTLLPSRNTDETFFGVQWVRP


Key:
[1] = molecular target: T1, human CD70 expressed on the cell surface; experiment: cell-based or functional assay
[2] = molecular target: T1, human CD70 expressed on the cell surface; experiment: flow cytometry titration on A498 cells, PE anti-human IgG
Procedure: Binding of the anti-CD70 human monoclonal antibodies was assessed by incubating 5×10⁵ cells with antibody at a starting concentration of 50 μg/ml and serially diluting the antibody at a 1:3 dilution. The cells were washed and binding was detected with a PE-labeled anti-human IgG Ab. Flow cytometric analyses were performed using a FACSCalibur flow cytometry (Becton Dickinson, San Jose, Calif.).

[3] = molecular target: human CD16 on effector cells (human, UniProt P08637 17-254); experiment: cell-based or functional assay
Sequence of human CD16 on effector cells (P08637 17-254): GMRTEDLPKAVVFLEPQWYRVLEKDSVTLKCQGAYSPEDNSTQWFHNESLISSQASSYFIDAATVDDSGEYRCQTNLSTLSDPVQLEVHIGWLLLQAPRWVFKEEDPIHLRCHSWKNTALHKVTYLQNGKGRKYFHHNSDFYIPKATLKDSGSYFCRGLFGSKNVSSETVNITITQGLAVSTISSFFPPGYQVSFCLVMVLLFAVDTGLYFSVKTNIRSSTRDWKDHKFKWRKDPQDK

Row | EC50 of decrease in ^3H-thymidine incorporation, Hum-Zap internalization assay, 786-O cells [1] | EC50 (read off the curve) [2] | amount of anti-CD16 3G8 needed to reverse inhibition, 2H5NF against 2H5 [3] | Binder
1 | 0.942 nM | ~7 nM |  | anti-CD70 human monoclonal antibody 2H5 (antibody, V domains shown, Fully human IgG with kappa light chain, from a hybridoma; human IgG1 isotype controls were used; also called HuMAb 2H5) VH: QVQLVESGGGVVQPGRSLRLSCAASGFTFSSYIMHWVRQAPGKGLEWVAVISYDGRNKYYADSVKGRFTISRDNSKNTLYLQMNSLRAEDTAVYYCARDTDGYDFDYWGQGTLVTVSS VL: EIVLTQSPATLSLSPGERATLSCRASQSVSSYLAWYQQKPGQAPRLLIYDASNRATGIPARFSGSGSGTDFTLTISSLEPEDFAVYYCQQRTNWPLTFGGGTKVEIK
2 |  |  | ~1000 fold | non-fucosylated anti-CD70 human monoclonal antibody 2H5 (antibody, V domains shown, antibody lacking in fucosyl residues (expressed in FUT8-deficient CHO cell line Ms704-PF)) VH: QVQLVESGGGVVQPGRSLRLSCAASGFTFSSYIMHWVRQAPGKGLEWVAVISYDGRNKYYADSVKGRFTISRDNSKNTLYLQMNSLRAEDTAVYYCARDTDGYDFDYWGQGTLVTVSS VL: EIVLTQSPATLSLSPGERATLSCRASQSVSSYLAWYQQKPGQAPRLLIYDASNRATGIPARFSGSGSGTDFTLTISSLEPEDFAVYYCQQRTNWPLTFGGGTKVEIK
